In article PMC5118228 (EJNMMI Research, 2016):

Tests used:
[1] = tested on: tumor and normal organs of mice; experiment: Radiation dosimetry (MIRD schema, Olinda/EXM spherical S-factors); type: in vivo; conditions: tumor-bearing mice, calculated
Description: Saturation of receptor-specific tumor uptake was investigated by determining the kinetics of the tumor uptake with increasing injected mass of peptide. The time-activity curves for the tumor and normal organs were fitted by single-exponential functions using Prism-5 (GraphPad). Goodness of fit was analyzed with the Pearson correlation coefficient R ^2 > 0.8. Both F test and the Aikake information criterion were used to decide on the complexity of the curves.
Dosimetry was performed according to the MIRD schema by using the spherical nodes S-factors from the Olinda/EXM software. S-factors were interpolated from the actual weight of the organs and tissue. All organs and tissue were assumed to be spherical with a density of […]. Mean radiation absorbed doses were obtained as a function-injected mass of peptide, assuming a homogeneous distribution in the tumor and organs. […] Owing to the short path length of α-particles, only the self-dose within each organ was included. The threshold for lethality was determined with renal absorbed dose and injected activity as indicators. Logistic regression analysis was used to determine the LD50 for presumed renal toxicity-related death.

[2] = tested on: neutrophil gelatinase-associated lipocalin (NGAL); experiment: Serum NGAL by ELISA (kidney injury biomarker); type: in vivo, mice
Description: MTD was defined as the highest dose given to the animals allowing 100% survival with no significant weight loss >15% throughout the experiment. Nontumor-bearing mice were randomly divided into seven cohorts used to evaluate MTD, six treatments and one control (n = 8/cohort); see Table 1. […] Control mice received DOTATATE (4 × 0.3 nmol) on four consecutive days. The animals were followed for 90 days. Serum was analyzed for the biomarker neutrophil gelatinase-associated lipocalin (NGAL) using ELISA (R&D Systems, 450 nm).

AR42J tumor = conditions: low-dose (16.8 ± 1.3 MBq) and high-dose (33.1 ± 3.7 MBq); AR42J tumor-bearing mice
Description: Athymic male nu/nu mice (Tachonic), 6–8 weeks old, were used in all studies. Tumor models were established by inoculating 5 × 10^6 rat pancreatic tumor AR42J cells (American Type Culture Collection) with high SSTR2 expression into the right hind flank of the animals. After 3 weeks, the tumor size reached approximately 200 mm^3. All animal experiments were carried out following Institutional Animal Care and Use Committee-approved protocol.
Toxicity and therapeutic efficacy were investigated in 18 animals (n = 6/cohort): control, low-dose (cumulative 16.8 ± 1.3 MBq), and high-dose (cumulative 33.1 ± 3.7 MBq) cohorts. Treatment started 23 days after xenograft inoculation. Control mice received in total 4 × 0.3 nmol DOTATATE on two consecutive days. Two injections of 0.3 nmol DOTATATE per day were given, with a time interval of at least 6 h. […] The high-dose cohort received four doses on two consecutive days, twice a day with a time interval of at least 6 h. […] Animals were monitored for 30 days starting on the day of treatment. Tumors were measured by caliper, and animals were weighed at least twice weekly. The endpoints chosen were weight loss >15% and tumor volume >2000 mm^3. […]

SMILES: C[C@@H](O)[C@H](NC(=O)[C@@H]1CSSC[C@H](NC(=O)[C@@H](Cc2ccccc2)NC(=O)CN2CCN(CC(=O)O)CCN(CC(=O)O)CCN(CC(=O)O)CC2)C(=O)N[C@@H](Cc2ccc(O)cc2)C(=O)N[C@H](Cc2c[nH]c3ccccc23)C(=O)N[C@@H](CCCCN)C(=O)N[C@@H]([C@@H](C)O)C(=O)N1)C(=O)O [^213Bi-DOTATATE, metal not drawn]
- Radiation absorbed dose per administered activity, Stomach, ^209Tl β + γ ([1]; with L-lysine (35 mg)): 7.00E-05 Gy/MBq
- Radiation absorbed dose per administered activity, Stomach, ^213Bi α ([1]; with L-lysine (35 mg)): 9.00E-04 Gy/MBq
- Radiation absorbed dose per administered activity, Stomach, ^213Bi β ([1]; with L-lysine (35 mg)): 2.60E-03 Gy/MBq
- Radiation absorbed dose per administered activity, Stomach, ^213Po α ([1]; with L-lysine (35 mg)): 6.00E-02 Gy/MBq
- Radiation absorbed dose per administered activity, Tumor, Total α ([1]; with L-lysine (35 mg)): 6.14E-01 Gy/MBq
- Radiation absorbed dose per administered activity, Tumor, Total β ([1]; with L-lysine (35 mg)): 4.40E-02 Gy/MBq
- Radiation absorbed dose per administered activity, Tumor, ^209Pb β ([1]; with L-lysine (35 mg)): 1.41E-02 Gy/MBq
- Radiation absorbed dose per administered activity, Tumor, ^209Tl β + γ ([1]; with L-lysine (35 mg)): 8.60E-04 Gy/MBq
- Radiation absorbed dose per administered activity, Tumor, ^213Bi α ([1]; with L-lysine (35 mg)): 9.20E-03 Gy/MBq
- Radiation absorbed dose per administered activity, Tumor, ^213Bi β ([1]; with L-lysine (35 mg)): 2.87E-02 Gy/MBq
- Radiation absorbed dose per administered activity, Tumor, ^213Po α ([1]; with L-lysine (35 mg)): 6.05E-01 Gy/MBq
- Radiation absorbed dose per administered activity, Adrenals, Total α ([1]; without L-lysine): 3.60E-02 Gy/MBq
- Radiation absorbed dose per administered activity, Adrenals, Total β ([1]; without L-lysine): 2.00E-03 Gy/MBq
- Radiation absorbed dose per administered activity, Adrenals, ^209Pb β ([1]; without L-lysine): 2.00E-04 Gy/MBq
- Radiation absorbed dose per administered activity, Adrenals, ^209Tl β + γ ([1]; without L-lysine): 2.00E-05 Gy/MBq
- Radiation absorbed dose per administered activity, Adrenals, ^213Bi α ([1]; without L-lysine): 5.00E-04 Gy/MBq
- Radiation absorbed dose per administered activity, Adrenals, ^213Bi β ([1]; without L-lysine): 1.50E-03 Gy/MBq
- Radiation absorbed dose per administered activity, Adrenals, ^213Po α ([1]; without L-lysine): 3.56E-02 Gy/MBq
- Radiation absorbed dose per administered activity, Blood, Total α ([1]; without L-lysine): 9.00E-02 Gy/MBq
- Radiation absorbed dose per administered activity, Blood, Total β ([1]; without L-lysine): 5.00E-03 Gy/MBq
- Radiation absorbed dose per administered activity, Blood, ^209Pb β ([1]; without L-lysine): 1.60E-04 Gy/MBq
- Radiation absorbed dose per administered activity, Blood, ^209Tl β + γ ([1]; without L-lysine): 1.20E-04 Gy/MBq
- Radiation absorbed dose per administered activity, Blood, ^213Bi α ([1]; without L-lysine): 1.30E-03 Gy/MBq
- Radiation absorbed dose per administered activity, Blood, ^213Bi β ([1]; without L-lysine): 4.30E-03 Gy/MBq
- Radiation absorbed dose per administered activity, Blood, ^213Po α ([1]; without L-lysine): 8.80E-02 Gy/MBq
- Radiation absorbed dose per administered activity, Femur, Total α ([1]; without L-lysine): 3.20E-02 Gy/MBq
- Radiation absorbed dose per administered activity, Femur, Total β ([1]; without L-lysine): 1.00E-03 Gy/MBq
- Radiation absorbed dose per administered activity, Femur, ^209Pb β ([1]; without L-lysine): 1.00E-04 Gy/MBq
- Radiation absorbed dose per administered activity, Femur, ^209Tl β + γ ([1]; without L-lysine): 3.00E-05 Gy/MBq
- Radiation absorbed dose per administered activity, Femur, ^213Bi α ([1]; without L-lysine): 5.00E-04 Gy/MBq
- Radiation absorbed dose per administered activity, Femur, ^213Bi β ([1]; without L-lysine): 1.30E-03 Gy/MBq
- Radiation absorbed dose per administered activity, Femur, ^213Po α ([1]; without L-lysine): 3.16E-02 Gy/MBq
- Radiation absorbed dose per administered activity, Kidney, Total α ([1]; without L-lysine): 1.07E+00 Gy/MBq
- Radiation absorbed dose per administered activity, Kidney, Total β ([1]; without L-lysine): 5.50E-02 Gy/MBq
- Radiation absorbed dose per administered activity, Kidney, ^209Pb β ([1]; without L-lysine): 6.20E-03 Gy/MBq
- Radiation absorbed dose per administered activity, Kidney, ^209Tl β + γ ([1]; without L-lysine): 1.30E-03 Gy/MBq
- Radiation absorbed dose per administered activity, Kidney, ^213Bi α ([1]; without L-lysine): 1.61E-02 Gy/MBq
- Radiation absorbed dose per administered activity, Kidney, ^213Bi β ([1]; without L-lysine): 4.71E-02 Gy/MBq
- Radiation absorbed dose per administered activity, Pancreas, Total α ([1]; without L-lysine): 1.34E-01 Gy/MBq
- Radiation absorbed dose per administered activity, Pancreas, Total β ([1]; without L-lysine): 5.00E-03 Gy/MBq
- Radiation absorbed dose per administered activity, Pancreas, ^209Pb β ([1]; without L-lysine): 7.00E-04 Gy/MBq
- Radiation absorbed dose per administered activity, Pancreas, ^209Tl β + γ ([1]; without L-lysine): 1.00E-04 Gy/MBq
- Radiation absorbed dose per administered activity, Pancreas, ^213Bi α ([1]; without L-lysine): 2.00E-03 Gy/MBq
- Radiation absorbed dose per administered activity, Pancreas, ^213Bi β ([1]; without L-lysine): 4.50E-03 Gy/MBq
- Radiation absorbed dose per administered activity, Pancreas, ^213Po α ([1]; without L-lysine): 1.32E-01 Gy/MBq
- Radiation absorbed dose per administered activity, Stomach, Total α ([1]; without L-lysine): 9.00E-02 Gy/MBq
- Radiation absorbed dose per administered activity, Stomach, Total β ([1]; without L-lysine): 5.00E-03 Gy/MBq
- Radiation absorbed dose per administered activity, Stomach, ^209Pb β ([1]; without L-lysine): 5.90E-04 Gy/MBq
- Radiation absorbed dose per administered activity, Stomach, ^209Tl β + γ ([1]; without L-lysine): 1.10E-04 Gy/MBq
- Radiation absorbed dose per administered activity, Stomach, ^213Bi α ([1]; without L-lysine): 1.30E-03 Gy/MBq
- Radiation absorbed dose per administered activity, Stomach, ^213Bi β ([1]; without L-lysine): 3.90E-03 Gy/MBq
- Radiation absorbed dose per administered activity, Stomach, ^213Po α ([1]; without L-lysine): 8.84E-02 Gy/MBq
- Radiation absorbed dose per administered activity, Tumor, Total α ([1]; without L-lysine): 6.61E-01 Gy/MBq
- Radiation absorbed dose per administered activity, Tumor, Total β ([1]; without L-lysine): 4.80E-02 Gy/MBq
- Radiation absorbed dose per administered activity, Tumor, ^209Pb β ([1]; without L-lysine): 1.58E-02 Gy/MBq
- Radiation absorbed dose per administered activity, Tumor, ^209Tl β + γ ([1]; without L-lysine): 9.60E-04 Gy/MBq
- Radiation absorbed dose per administered activity, Tumor, ^213Bi α ([1]; without L-lysine): 9.90E-03 Gy/MBq
- Radiation absorbed dose per administered activity, Tumor, ^213Bi β ([1]; without L-lysine): 3.14E-02 Gy/MBq
- Radiation absorbed dose per administered activity, Tumor, ^213Po α ([1]; without L-lysine): 6.51E-01 Gy/MBq
- NGAL level ([2]; high-dose(−), 28.7 ± 1.2 MBq, without L-lysine, serum ELISA): 15.8 ± 3.5 ng/mL
- nephrotoxicity (NGAL) ([2]; low-dose(−) and low-dose(+) cohorts): No nephrotoxicity
- tumor volume (AR42J tumor): significantly decreased
